From IntAct's records for PubMed 29039417

B1: BBSome complex member BBS4 (Homo sapiens), Q96RK4 (parent)
chain: MAEERVATRTQFPVSTESQKPRQKKAPEFPILEKQNWLIHLHYIRKDYEACKAVIKEQLQETQGLCEYAIYVQALIFRLEGNIQESLELFQTCAVLSPQSADNLKQVARSLFLLGKHKAAIEVYNEAAKLNQKDWEISHNLGVCYIYLKQFNKAQDQLHNALNLNRHDLTYIMLGKIHLLEGDLDKAIEVYKKAVEFSPENTELLTTLGLLYLQLGIYQKAFEHLGNALTYDPTNYKAILAAGSMMQTHGDFDVALTKYRVVACAVPESPPLWNNIGMCFFGKKKYVAAISCLKRANYLAPFDWKILYNLGLVHLTMQQYASAFHFLSAAINFQPKMGELYMLLAVALTNLEDIENAKRAYAEAVHLDKCNPLVNLNYAVLLYNQGEKKNALAQYQEMEKKVSLLKDNSSLEFDSEMVEMAQKLGAALQVGEALVWTKPVKDPKSKHQTTSTSKPASFQQPLGSNQALGQAMSSAAAYRTLPSGAGGTSQFTKPPSLPLEPEPAVESSPTETSEQIREK
partner: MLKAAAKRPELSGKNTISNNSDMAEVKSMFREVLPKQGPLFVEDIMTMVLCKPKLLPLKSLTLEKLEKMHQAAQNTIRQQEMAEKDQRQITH

Variants of: B1
Settings: with bbip1_human BBIP1, A8MTZ0

effect of a mutation on the interaction	Variant
with no effect	R517K
with no effect	E518A
with no effect	E518K
with no effect	K519A
with no effect	K519E

The remaining lines, values behind:

Variant	effect of a mutation on the interaction
R517A	with no effect
R517E	with no effect
I516A	with no effect
I516E	with no effect
I516K	with no effect
Q515K	with no effect
Q515E	with no effect
